{"source": "paper PMC4576867", "about": "(The Journal of Cell Biology, 2015)", "molecular_target": "the molecule itself", "test": "AUC", "data": [{"protein": "cytosolic domain of S. cerevisiae Sey1p (residues 1-680) (domain or fragment, UniProt Q99287 1-680, looked up) MADRPAIQLIDEEKEFHQSALQYFQQCIGNRDVGLDYHVISVFGSQSSGKSTLLNVLFNTNFDTMDAQVKRQQTTKGIWLAHTKQVNTTIEIDNDRPDIFVLDVEGSDGSERGEDQDFERKAALFAIAVSEVLIVNMWEQQIGLYQGNNMALLKTVFEVNLSLFGKNDNDHKVLLLFVIRDHVGVTPLSSLSDSVTRELEKIWTELSKPAGCEGSSLYDYFDLKFVGLAHKLLQEDKFTQDVKKLGDSFVMKGTENYYFKPQYHHRLPLDGWTMYAENCWDQIERNKDLDLPTQQILVARFKTEEISNEALEEFISKYDESIAPLKGNLGSLTSQLVKLKEECLTKYDEQASRYARNVYMEKREALNTKLNSHISGTINEFLESLMEKLWDDLKLEVSSRDKATTSFVESVAAGKSKIEKEFNESMETFKKLGLLISNEEITCKFSDDIEERIKQLRDAELKAKIGRIKKNLVPELKDHVIHLLSHPSKKVWDDIMNDFESTIKDNISAYQVEKDKYDFKIGLSESENAKIYKNIRILAWRTLDTTVHDYLKIDTIVSILRDRFEDVFRYDAEGSPRLWKTEEEIDGAFRVAKEHALEVFEVLSLAVTSDNVEIIPDVPMAEEESGEDNEIYRDNEGVFHSRRFAHILTELQKENVLDQFRRQINITVLDSKRSIITTRT", "values": [{"measurement": "stoichiometry N", "result": 2}]}]}
